21 sequences from the DeepSol protein solubility set can be followed below.

This data set is described as follows: soluble on expression in E. coli; label from the status in PepcDB or PDB records.
For the sequence “MSLELVSFVKSHIDQAVYFSTITSNPIEFNLPESLSLDTTDIENDIKTSCDEIFYSTGSYIPPMLNTLEQHLNLRIEYFNNLIEFTKINFNYKISPTVKLYLIEKISILKCCLALFKYISDKAILSNIWRDLVLNSFNDSSLEEFVLGKLDEFPRLFTIFLNDLSAKIVGFNDVEEKVKIVDLLITCVYDAVLENCEKSIRYDALQLDPLELDNKPMWFTNLTNIKAMNNIFFSFIFPDNDLSVENKQRLLTVVKLLYYVINQNMIWHKSMKQIETEEYKEVEALYNDNHANWIHVLCNIGVHEEALQICEFYHDLGGLVEILEKLDFEISRELYDQYFKMFGYEFATILFEYYINAKDLKALFFKFPNHHDLLNKFLLSSPPKYYKYAWIQEIIDNDYRKASDILTTLSVGEAGDGCEISERQLHLNIAKLSGLVDENFDANQMIEIQRDIDTIDHQTRIKKLLEEDPTGISMNQAFANNEFGEKFQETKYCIQNDKSINIKYIIDMLSMMDSVENLYEALKLTCIYRHSLGYEVSKYFQQSIWRRCIIEESKDGVIQLEGENSKIYQLLVKYFEGKLYEYDCKLPFVSFLMDRIGISMNFLSIIYGNDNNVLVSISDSIEREYHDLIRIGDTLESQLSTIIGSANESTGNECTINYETKSIEYEGHHHHHH”, the “soluble on expression in E. coli” value is “soluble”.

On to “MAYLERAYFGLQCFWGESAWAKLKGVVVTRVGYAGGKQPNPTYKNIKDHTEITEITFDPKVIEYSKLTNFFWKHHNPAERRKKQYQSAILYVNDDQKKVAEETLKVAKDKHGDIETYIEPLDKFYQAEDYHQKYWFRQKKILFDELSLLDTQVAEGELATKLNAYCAGFQDFHDLERLAKEYGLKDSFVNKVKDYALSGGDPRNCHA”, for which the “soluble on expression in E. coli” value was “not soluble”.

Turning to “MGSDKIHHHHHHMTEVISTQSVVDLAAIAEKFAFPGTVTNVQAFGSGNINDTFLVTVDSLEAQHFILQRINTLVFRQPELIMQNMRIFSDHVYQRLQYAPPSRRWEVPRILSTKDNHDYCTDTQGNFWRAISFISGSQSFDTMQDLAQAQEIGYALGMFHNLISDLSPEKLADTLVGFHITPLYLRHYEQVLATAKPQPSPELDYCLQFVSDRQSYACILENAKAAGELPLRLMHGDPKINNIMFDTVTHKAVSVIDLDTVKPGLVHYDIGDCLRSGCNHAGEETEHWESVAFDTDLCQGILQGYLSVAKDFLTENDYAYMYDAIRLIAFELGLRFFADYLAGNVYFKIKYPEHNLARALVQFKLTESIESQEIKIRKIIQDIK”, the “soluble on expression in E. coli” value was “not soluble”.

On to “MVISLKNRNFLKLLDYTPAEIQHLIDLAIELKAAKKAGCEKQTLIGKNIALIFEKTSTRTRCAFEVAAFDQGAQVTYLGPSGSQIGHKESMKDTARVLGRMYDGIEYRGFGQHIVEELGEYAGVPVWNGLTDEFHPTQILADLMTMLEHAPGKTLPELSFAYLGDARNNMGNSLMVGAAKMGMDIRLIAPKSFWPDAALVAQCREIASVTGARITLTESVEDGVHGVDFLYTDVWVSMGEPKEAWAERVSLMTPYQVNQQVVNATGNPDVKFMHCLPAFHNEHTKVGREIEMAYGLKGLEVTEEVFESAGSIVFDEAENRMHTIKAVMVATLGD”, for which the “soluble on expression in E. coli” value was “not soluble”.

With “MSLAEPVLGDDGLYQLDWYLQSFLDLKEDLEGATAKGKRFAILWGLKGCPYCKKLHDVHMRDPAIESYIRDNFEIVHLNHIGAREVTDFDGSKLSEKAFAQAYGIRFTPSLQFFPESADGLAAKKPQDREVARMPGLLEPPEFLAMFKYVREKGYQSMPFTDWLKREGHHHHHH”, the “soluble on expression in E. coli” value is recorded as “soluble”.

Take “MSMQEMVTISIVTYNSRYIFNVLDQLKAELGTDSIYDIHIYDNHSETAYLEKLTTYEPFITIHRAEENQGFGHGHNQVLFNASTKYAIIFNPDVLVTKDVLDRLLNRIKIDKNIAVVSPKVLNEDGTTQYLVRQKLDVFDYMLRFIPFQFVKKIFDKRLSIYECRDLSDTETTDIKMGSGCFMLIDREKFVEIGGFDERFFMYFEDNDLCLRFGKAGYRILYTPFETVVHMYEKGAHKSRKLFKIFMQSMGKFFNKWGWRFFLEHHHHHH”: the “soluble on expression in E. coli” value is on record as “soluble”.

“MAHHHHHHMSDVIKLCEAEELKELFIKEYNEYLKLIKNVELYYEKLEINWKKFHLFYQQNKKDPFEYHKEKNKHNKIKKVQNKKKNINIHSDYQSIEKYFKMIQKKEIQNNCHYYKKFDYDKDSFILFTLKKNVNNAVELYININIEKLNKIKNYLLNYINDFCKRQINQIINLIILCEIKLNNLYISQKNHFTNNNIKIKHIHLIKNIIHFNQQFIFEVTKNLIPFFTNFNIFSSPDYFNYQFNYFNNCVEIMGE”: the “soluble on expression in E. coli” value is listed as “not soluble”.

On to “SLGSVLVDLQIATENIEGLPTEEQIVQWATGAVQPEGNEVEMTVRIVDEAESHELNLTYRGKDRPTNVLSFPFECPDEVELPLLGDLVICRQVVEREASEQEKPLMAHWAHMVVHGSLHLLGYDHIEDDEAEEMESLETQIMQGLGFDDPYLAEK”, for which the “soluble on expression in E. coli” value was “soluble”.

Regarding “MGSSHHHHHHSSGLVPRGSHMASMDGKQGGMDGSKPAGPRDFPGIRLLSNPLMGDAVSDWSPMHEAAIHGHQLSLRNLISQGWAVNIITADHVSPLHEACLGGHLSCVKILLKHGAQVNGVTADWHTPLFNACVSGSWDCVNLLLQHGASVQPESDLASPIHEAARRGHVECVNSLIAYGGNIDHKISHLGTPLYLACENQQRACVKKLLESGADVNQGKGQDSPLHAVVRTASEELACLLMDFGADTQAKNAEGKRPVELVPPESPLAQLFLEREGASLPKPKP”, the “soluble on expression in E. coli” value is “soluble”.

In the case of “MIVVKVGGAEGINYEAVAKDAASLWKEGVKLLLVHGGSAETNKVAEALGHPPRFLTHPGGQVSRLTDRKTLEIFEMVYCGLVNKRLVELLQKEGANAIGLSGLDGRLFVGRRKTAVKYVENGKVKVHRGDYTGTVEEVNKALLDLLLQAGYLPVLTPPALSYENEAINTDGDQIAALLATLYGAEALVYLSNVPGLLARYPDEASLVREIPVERIEDPEYLALAQGRMKRKVMGAVEAVKGGVKRVVFADGRVENPIRRALSGEGTVVR”, the “soluble on expression in E. coli” value was “soluble”.

On to “MTQSDYIESSEHIKDTQIGYCKYGHGPNYILAICGAVGCYKKDWPLKLLSHFPPDQVTIVGIDPPGYGTSRPPERKQEVQRCMKDSEYCLGLMETLKLEPFTVMGWSEGARTTVHVAAKGKEKVNRMIVMAGATKVNHLGAMAFKGMRETNHWLAAGRQPYLDHYSPETLRTQWAALCDVVDQVHSFCGGRFPCDLVLPQVKCPTLVMNGGLDRFCGDPNVCFIPVLKSLAKVEIHAQGGHDFYLKYPKWFSGKVLEFLKSTEKK”, for which the “soluble on expression in E. coli” value was “not soluble”.

Take “MRLLLAAPHSGAGKTTVSLALLLALRARGLRVQPFKVGPDYIDPTHLEKAAARRPYNLDGFFLDETGLLALFRHGARGADFALIEGVMGLFDGKDPRGEVGSTAQVARLLKAPVALVVDAKGMAGSIAPLALGFRDFHPGVRVVGVFANRVGSERHAEILKEALKAVGLPLLGWLPQDPALELPERHLGLVLAGEVAPPLEALRRAFRVDLEGVLRLAASAPPLPEARPFLPPRRPPRARVAYAWDKAFSFYYPEALELLEALGAELVPFSPLEDEALPKAHALLLGGGYPELFAERLSANVALREAIRRFPGPIVAECGGYMYLSQGLWVGERFFPMVGLVPGEARMAERPVLGYREVEALRDSPVARKGQAFKGHEFHYARLPASPSPAWRRLGGEEVEGYTDGRVLASFVHLYLPARPEGVERLLGLASRGKAAGASLEHHHHHH”: the “soluble on expression in E. coli” value is listed as “not soluble”.

In the case of “MGSDKIHHHHHHMKVTILLPAYNAALYLRDSLDSIMRQAFKDFDVLLIDDGSMDDTSKIAIEYSNIDRRIKYYKNEKNIGLIKTLNKGLSLAKGEYIVRMDADDIMFDDRLYKQVKYMDSNPECFVCGGQMEYIGGLTGMAPILPQKYEDLLYLSLINCPLYHPTTIIRNSAIKQFGLKYNDSYKHAEDYKFWSDIIFSHPNSIANIKDVVLFYRISNNQITAKYSDEQDLISKIVRRENVQHVLVPYGIKLPEVVNCEIIEKVSSLIRKEHIDAAEILTLVLCMLYMSMENSYVRIKHFILSNDYSLFVKNSSRIKLGLSVLLSGIFSNRGKRFVI”, the “soluble on expression in E. coli” value is “not soluble”.

Turning to “MGSDKIHHHHHHMEQAATQRLATGIPGLDEICGGGLVPRYAYLVRGGPGTGKTTLGLHFLAAGAANGETTLFISLEETESKIRWNAAQTGINLNQVHILDLSPSSDFFANTQIYDIFSPAEVEREPITRQIVETVQRLQPTRVFLDSITQFRYLTPDTFQFRKQVISFLRFLAEQRTTVVFSAENSAAFPDDDLQYIADGIISLELTNTGRYLTVSKMRGSSFVSGRHAMRLTTQGLQVFPRIIPTPLVAGHAFTLIPSGVPELDELLNGGVERGTITLITGPSGVGKTTLGFQFMKEAASRGERSMVFSFEEEIEIMQQRCEAVNIPVRAMQKQQLLRIEKIEPLQYNPAEFAQHVRYFIEQEQIKVVMIDSVTGYRLCMHGEDLISQLHALSKYLQSRGVTVFLIMDTTDIVGDFKVTEIGASYLGDNIIFLRFLEIEGELRKAIGVLKKRLGDFEKTLREFAISRYGIKVGKPLTNLRGILSGMPTWVDKA”, the “soluble on expression in E. coli” value is “not soluble”.

As to “MSSKPKYVQDQEMIPGVYWVGIVDWMVRIFHGYHTDEGSSYNSYFIDDECPTVIDSVKYPFAEEWLSRIAACCPLDKIKYVVMNHAEGDHASSLKDHYHKFTNATFVCTKKCQEHLKILYGMEKATWLIVDDKYTLKIGKRTLKFIPVPLLHWPDSTFTYCPEDKILFSNDGFGQHYATSRRWADECDVSHVMHLFKEYTANILGLFSAQMRKALEVASTVEIKYILSAHGVSWRGDAMGLAIAEYDRWSKGQHCQKKVTVVLDSMYGTTHRMALALLDGARSTGCETVLLEMTSSDITKVALHTYDSGAVAFASPTLNNTMMPSVAAALNYVRGLTLIKGKPAFAFGAFGWSNRAVPDIVAELRDGCKADVYDEKGITFKFNYTEELLEQAYNAGVDLGKRAIAYCEKNAPKQ”, the “soluble on expression in E. coli” value is given as “soluble”.

As for “MSLPNCLQCQSEYVYEDGLLLICPMCAFEWTPGEEATEEEGLVVLDSNGVRLSDGDTITVVKDLKVKGAPKDLKQGTRVKNIRLVEGDHNIDCKIDGFGAMKLKSEFVKKI”, the “soluble on expression in E. coli” value was “not soluble”.

For “NDKYMLLVFGRNGCSYCERFKKDLKNVKELRDYIKEHFSAYYVNISYSKEHDFKVGDKNNEKEIKMSTEELAQIYAVQSTPTIVLSDKTGKTIYELPGYMPSTQFLAVLEFIGDGKYQDTKDDEDLTKKLKAYIKYKTNLSKSKSN”, the “soluble on expression in E. coli” value is “not soluble”.

As for “MIPVKFKGATFGRLVKLEFEILRLGELKIDDISEFNTKDIKLEIRATSSGIKLIGVWEGDISEVGEAIKRALDESMKLRERLLRKMRNKVERIRKTLTEMGFSEESIGYGDAIRFTKRIGEYEVAIVVSSRDDIVRVEVYGGNKKLLAPELEAFFESVDIEELEIYDVDEDGREERVVINLELPKTDEKPEKRIIEAVKVLENILMA”, the “soluble on expression in E. coli” value is listed as “soluble”.

For “MFQDMSKDFDIKRIKRSNTSCSTGVGAHVHPFNEIFYLSSGECTSFIDHNIYKFGKGDLVIVPSGCLHRTTYNGKGMHERIVISFRNEATEWIQNQTGKELMENCMKPGVVNIPEKRRDYVVALLDKLIFENDSPDELSPAFIKVGLIELLLFIIRCKNYEENVIKEIDVDNR”, the “soluble on expression in E. coli” value is given as “not soluble”.

On to “MMLFSNLIKENQKIWNAYLHHDFVKKLEDKSLKQENFLFYLKQDYIYLLNYAKCYARLALNSNTAKELRFAMKFQNYIVEGEMELHRAILSLGINADELDIKDESLVNIAYSRYMLSVGENGDFLDMLVALSACAIGYAKIGAEIINRLKNENLKDHPYKEWILTYGSENFQNEAKEFEDFVNSYTSSVGAQKFQKLSEIFHTVTRLEVAFWEHSLRMELNLLEHHHHHH”, for which the “soluble on expression in E. coli” value is given as “soluble”.

On to “NVYDLANELERAVRALPEYQAVLTAKSAIESDADAQVLWQDFLATQSKVQEMMQSGQMPSQEEQDEMSKLGEKIESNDLLKVYFDQQQRLSVYMSDIEKIVFAPMQDL”, for which the “soluble on expression in E. coli” value was “soluble”.
